Data reported in patent US9290800.

Biological target: T1, M2Y DNA polymerase-His10 (polymerase A) (Bacteriophage M2Y) (UniProt P19894)
T1 sequence: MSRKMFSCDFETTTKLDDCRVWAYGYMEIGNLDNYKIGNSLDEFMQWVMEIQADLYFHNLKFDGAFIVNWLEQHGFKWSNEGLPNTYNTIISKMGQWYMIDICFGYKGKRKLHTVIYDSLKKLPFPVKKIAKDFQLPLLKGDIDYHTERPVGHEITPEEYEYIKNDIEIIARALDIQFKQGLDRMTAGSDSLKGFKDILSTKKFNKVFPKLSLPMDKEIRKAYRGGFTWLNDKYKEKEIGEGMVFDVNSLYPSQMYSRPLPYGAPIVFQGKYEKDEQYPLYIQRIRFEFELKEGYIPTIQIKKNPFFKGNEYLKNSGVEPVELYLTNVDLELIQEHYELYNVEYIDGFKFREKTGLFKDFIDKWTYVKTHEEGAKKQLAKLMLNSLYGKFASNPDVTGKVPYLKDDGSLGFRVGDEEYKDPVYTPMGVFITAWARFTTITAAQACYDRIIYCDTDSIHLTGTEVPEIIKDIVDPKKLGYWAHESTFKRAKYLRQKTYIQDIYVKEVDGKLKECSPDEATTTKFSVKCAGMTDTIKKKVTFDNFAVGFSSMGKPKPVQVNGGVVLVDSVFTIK
Settings: average amplification per round over two rounds

## FMR1 genomic fragment SMRTbell
  activity: 177 fold
